Data taken from patent publication US20250152742A1, “COMPOSITIONS AND METHODS FOR NEUROLOGICAL DISEASES” (Trames Bio, Inc., priority 2022, published 2025).

System: rat DRG neurons
Test: Rheobase shift / evoked action potentials, rat DRG neurons (current clamp)
Assay type: cell-based
Conditions: for Rheobase Shift; Rat DRG Neurons, Baseline: no ligand, neurons expressing the receptor; for Rheobase Shift; Rat DRG Neurons, +TC-5619 @ EC90: ligand TC-5619 at EC90
Experimental: Using whole cell manual patch clamp electrophysiology in HEK293 cells, rat DRG neurons and rat hippocampal neurons, the EC50 of the various engineered receptors disclosed herein to Ach and non-native ligands was measured using the Hill equation with peak current measurements from escalating doses of ligand. The rheobase shift was also measured in rat DRG neurons, which reflects the efficacy of the receptors. To calculate the rheobase, first, the amount of current that can produce an action potential was determined. Then the ligand was added, followed by a step wise increase in the current injected up to 700 pA.
DRG rheobase experiments were performed in current clamp mode using a potassium-based internal solution containing: 100 mM potassium D-gluconate, 28 mM potassium chloride, 1 mM magnesium chloride hexahydrate, 5 mM magnesium ATP, 10 mM HEPES, and 0.5 mM EGTA (pH=7.2 with potassium hydroxide, osmolarity=290-295 mOsm, calculated liquid junction potential=−13.5 mV). To measure DRG input resistance and rheobase, 500 ms current steps (−200 pA to 700 pA) were applied the membrane in the presence and absence of a compound. No holding current was applied to the membrane for cells included in the final datasets. Data were acquired at 10 kHz, with Bessel filter at 2 kHz and series resistance compensation at 100%. Rheobase was defined as the smallest depolarizing current injection required to cause an action potential to fire in the cell. In a subset of cells, the rheobase was ambiguous, since the action potential appeared to be graded in amplitude. In these cases, a […] of the trace clarified the rheobase. Input resistance was measured from the negative current injections, calculated as the difference in membrane potential at steady state divided by the current injection amplitude and then averaged across the four negative current steps for each recording. Resting membrane potential was measured from the first 100 ms of each sweep, averaged for each recording, and corrected for liquid junction potential. One-way ANOVA with multiple comparisons was used to test for significance of difference in rheobase and input resistance between baseline, drug, and wash conditions.
DRG neurons: DRG rheobase experiments were performed in current clamp mode using a potassium-based internal solution containing (in mM): 100 potassium D-gluconate (G4500), 28 potassium chloride (P9333), 1 magnesium chloride hexahydrate (M2670), 5 magnesium ATP (A9187), 10 HEPES (54457), and 0.5 EGTA (3777) (pH=7.2 with potassium hydroxide, osmolarity=290-295 mOsm, calculated liquid junction potential=−13.5 mV). To measure DRG input resistance and rheobase, 500 ms current steps (−200 pA to 700 pA) were applied the membrane (−400 pA to 700 pA in an early version of the protocol) in the presence and absence of a compound. No holding current was applied to the membrane for cells included in the final datasets. Data were acquired at 10 kHz, with Bessel filter at 2 kHz and series resistance compensation at 100%. Rheobase was defined as the smallest depolarizing current injection required to cause an action potential to fire in the cell. In a subset of cells, the rheobase was ambiguous, since the action potential appeared to be graded in amplitude. In these cases, a […] of the trace clarified the rheobase. Input resistance was measured from the negative current injections, calculated as the difference in membrane potential at steady state divided by the current injection amplitude and then averaged across the four negative current steps for each recording. Resting membrane potential was measured from the first 100 ms of each sweep, averaged for each recording, and corrected for liquid junction potential. One-way ANOVA with multiple comparisons was used to test for significance of difference in rheobase and input resistance between baseline, drug, and wash conditions.

B1: CODA1025: engineered receptor: R101F, L131G in SEQ ID NO: 33 (protein)
chain: MRCSPGGVWLALAASLLHVSLQGEFQRKLYKELVKNYNPLERPVANDSQPLTVYFSLSLLQIMDVDEKNQVLTTNIWLQMSWTDHYLQWNVSEYPGVKTVFFPDGQIWKPDILLYNSADERFDATFHTNVGVNSSGHCQYLPPGIFKSSCPMDLKNFPMDVQTCKLKFGSWSYGGWSLDLQMQEADISGYIPNGEWDLVGIPGKRSERFYECCKEPYPDVTFTVTMRRRMGYYLIQMYIPSLLIVILSWISFWINMDAAPARVGLGITTVLTMTTQSSGSRASLPKVSYVKAIDIWMAVCLLFVFSALLEYAAVNFVSRQHKELLRFRRKRRHHKSPMLNLFQEDEAGEGRFNFSAYGMGPACLQAKDGISVKGANNSNTTNPPPAPSKSPEEMRKLFIQRAKKIDKISRIGFPMAFLIFNMFYWIIYKIVRREDVHNQ
modifications: synthetic sequence of chimeric LGIC
  Rheobase Shift; Rat DRG Neurons, Baseline: 140 ± 19 pA
  Rheobase Shift; Rat DRG Neurons, +TC-5619 @ EC90: 560 ± 72 pA

B2: CODA1027: engineered receptor: R101F, L131D in SEQ ID NO: 33 (protein)
chain: MRCSPGGVWLALAASLLHVSLQGEFQRKLYKELVKNYNPLERPVANDSQPLTVYFSLSLLQIMDVDEKNQVLTTNIWLQMSWTDHYLQWNVSEYPGVKTVFFPDGQIWKPDILLYNSADERFDATFHTNVDVNSSGHCQYLPPGIFKSSCPMDLKNFPMDVQTCKLKFGSWSYGGWSLDLQMQEADISGYIPNGEWDLVGIPGKRSERFYECCKEPYPDVTFTVTMRRRMGYYLIQMYIPSLLIVILSWISFWINMDAAPARVGLGITTVLTMTTQSSGSRASLPKVSYVKAIDIWMAVCLLFVFSALLEYAAVNFVSRQHKELLRFRRKRRHHKSPMLNLFQEDEAGEGRFNFSAYGMGPACLQAKDGISVKGANNSNTTNPPPAPSKSPEEMRKLFIQRAKKIDKISRIGFPMAFLIFNMFYWIIYKIVRREDVHNQ
modifications: synthetic sequence of chimeric LGIC
  Rheobase Shift; Rat DRG Neurons, Baseline: 100 ± 23 pA
  Rheobase Shift; Rat DRG Neurons, +TC-5619 @ EC90: 638 ± 63 pA

B3: CODA1039: engineered receptor: Y115E, Y210W in SEQ ID NO: 33 (protein)
chain: MRCSPGGVWLALAASLLHVSLQGEFQRKLYKELVKNYNPLERPVANDSQPLTVYFSLSLLQIMDVDEKNQVLTTNIWLQMSWTDHYLQWNVSEYPGVKTVRFPDGQIWKPDILLENSADERFDATFHTNVLVNSSGHCQYLPPGIFKSSCPMDLKNFPMDVQTCKLKFGSWSYGGWSLDLQMQEADISGYIPNGEWDLVGIPGKRSERFWECCKEPYPDVTFTVTMRRRMGYYLIQMYIPSLLIVILSWISFWINMDAAPARVGLGITTVLTMTTQSSGSRASLPKVSYVKAIDIWMAVCLLFVFSALLEYAAVNFVSRQHKELLRFRRKRRHHKSPMLNLFQEDEAGEGRFNFSAYGMGPACLQAKDGISVKGANNSNTTNPPPAPSKSPEEMRKLFIQRAKKIDKISRIGFPMAFLIFNMFYWIIYKIVRREDVHNQ
modifications: synthetic sequence of chimeric LGIC
  Rheobase Shift; Rat DRG Neurons, Baseline: 88 ± 9 pA
  Rheobase Shift; Rat DRG Neurons, +TC-5619 @ EC90: 453 ± 58 pA

B4: CODA1045: engineered receptor: R101W, Y210V in SEQ ID NO: 33 (protein)
chain: MRCSPGGVWLALAASLLHVSLQGEFQRKLYKELVKNYNPLERPVANDSQPLTVYFSLSLLQIMDVDEKNQVLTTNIWLQMSWTDHYLQWNVSEYPGVKTVWFPDGQIWKPDILLYNSADERFDATFHTNVLVNSSGHCQYLPPGIFKSSCPMDLKNFPMDVQTCKLKFGSWSYGGWSLDLQMQEADISGYIPNGEWDLVGIPGKRSERFVECCKEPYPDVTFTVTMRRRMGYYLIQMYIPSLLIVILSWISFWINMDAAPARVGLGITTVLTMTTQSSGSRASLPKVSYVKAIDIWMAVCLLFVFSALLEYAAVNFVSRQHKELLRFRRKRRHHKSPMLNLFQEDEAGEGRFNFSAYGMGPACLQAKDGISVKGANNSNTTNPPPAPSKSPEEMRKLFIQRAKKIDKISRIGFPMAFLIFNMFYWIIYKIVRREDVHNQ
modifications: synthetic sequence of chimeric LGIC
  Rheobase Shift; Rat DRG Neurons, Baseline: 141 ± 22 pA
  Rheobase Shift; Rat DRG Neurons, +TC-5619 @ EC90: 700 ± 0 pA

B5: CODA1048: engineered receptor: R101F, Y210F in SEQ ID NO: 33 (protein)
chain: MRCSPGGVWLALAASLLHVSLQGEFQRKLYKELVKNYNPLERPVANDSQPLTVYFSLSLLQIMDVDEKNQVLTTNIWLQMSWTDHYLQWNVSEYPGVKTVFFPDGQIWKPDILLYNSADERFDATFHTNVLVNSSGHCQYLPPGIFKSSCPMDLKNFPMDVQTCKLKFGSWSYGGWSLDLQMQEADISGYIPNGEWDLVGIPGKRSERFFECCKEPYPDVTFTVTMRRRMGYYLIQMYIPSLLIVILSWISFWINMDAAPARVGLGITTVLTMTTQSSGSRASLPKVSYVKAIDIWMAVCLLFVFSALLEYAAVNFVSRQHKELLRFRRKRRHHKSPMLNLFQEDEAGEGRFNFSAYGMGPACLQAKDGISVKGANNSNTTNPPPAPSKSPEEMRKLFIQRAKKIDKISRIGFPMAFLIFNMFYWIIYKIVRREDVHNQ
modifications: synthetic sequence of chimeric LGIC
  Rheobase Shift; Rat DRG Neurons, Baseline: 120 ± 19 pA
  Rheobase Shift; Rat DRG Neurons, +TC-5619 @ EC90: 590 ± 46 pA

B6: CODA1054: engineered receptor: R101M, L131F in SEQ ID NO: 33 (protein)
chain: MRCSPGGVWLALAASLLHVSLQGEFQRKLYKELVKNYNPLERPVANDSQPLTVYFSLSLLQIMDVDEKNQVLTTNIWLQMSWTDHYLQWNVSEYPGVKTVMFPDGQIWKPDILLYNSADERFDATFHTNVFVNSSGHCQYLPPGIFKSSCPMDLKNFPMDVQTCKLKFGSWSYGGWSLDLQMQEADISGYIPNGEWDLVGIPGKRSERFYECCKEPYPDVTFTVTMRRRMGYYLIQMYIPSLLIVILSWISFWINMDAAPARVGLGITTVLTMTTQSSGSRASLPKVSYVKAIDIWMAVCLLFVFSALLEYAAVNFVSRQHKELLRFRRKRRHHKSPMLNLFQEDEAGEGRFNFSAYGMGPACLQAKDGISVKGANNSNTTNPPPAPSKSPEEMRKLFIQRAKKIDKISRIGFPMAFLIFNMFYWIIYKIVRREDVHNQ
modifications: synthetic sequence of chimeric LGIC
  Rheobase Shift; Rat DRG Neurons, Baseline: 105 ± 13 pA
  Rheobase Shift; Rat DRG Neurons, +TC-5619 @ EC90: 673 ± 27 pA
